Reference: patent US20160297873A1 (VIRGINIA COMMONWEALTH UNIVERSITY, published 2016)

Columns and labels:
[1] = molecular target: biotinylated DENND1A.V2 specific 21 amino acid peptide … (Biotin-CH22) (human); assay: QC phage ELISA-2, helper phage control, coating Biotin-CH22
[2] = molecular target: biotinylated DENND1A.V2 specific 21 amino acid peptide … (Biotin-CH22) (human); assay: QC phage ELISA-1, helper phage control, coating Biotin-CH22
[3] = molecular target: T1, biotinylated DENND1A.V2 specific 21 amino acid peptide QKSITHFAAKFPTRGWTSSSH (Biotin-CH22) (human, biotinylated (position not given)); assay: ELISA (FIG. 11C)
T1 construct: Immobilised on streptavidin pre-coated plates; The label CH22 is not explained; also called Bio-CH-22; bio-peptide
T1 peptide: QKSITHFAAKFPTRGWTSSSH

**Q.** Which results are given for M13KO7 helper phage?
**A.** phage ELISA signal [1]: 0.533; phage ELISA signal [2]: 0.477

B1: human recombinant DENND1A.V2 specific IgG1 (V2 hmAB) (antibody, V domains shown)
VH: EVQLLESGGGLVQPGGSLRLSCAASGFTFSSYAMSWVRQAPGKGLEWVSIIGTDGDDTNYADSVKGRFTISRDNSKNTLYLQMNSLRAEDTAVYYCAKAEASFDYWGQGTLVTVSS
VL: DIQMTQSPSSLSASVGDRVTITCRASQSISSYLNWYQQKPGKAPKLLIYGASDLQSGVPSRFSGSGSGTDFTLTISSLQPEDFATYYCQQYDSAPSTFGQGTKVEIKR
notes: Expressed in 293E cells, Protein A purified; also called humanized monoclonal antibody; recombinant DENND1A.V2 IgG1
**Q.** Does B1 bind [3]?
**A.** binds
